Data on two molecules can be found in PMC4022879, “Interactions Outside the Proteinase-binding Loop Contribute Significantly to the Inhibition of Activated Coagulation Factor XII by Its Canonical Inhibitor from Corn*^([image sbox.jpg])” (The Journal of Biological Chemistry, 2014).

Substitutions are numbered along the chain they refer to. Names may count otherwise.

This experiment addresses activated coagulation factor XI (FXIa) (Activated two-chain form, cleaved after residue 387 (precursor numbering). Heavy and light chains are disulfide-linked, and the whole is a disulfide-linked homodimer; N-glycosylated. The commercial fu). As to the kind of experiment: chromogenic enzyme inhibition assay; 200 pM FXIa, 500 μM S2366, 37 °C, 110 mM Tris-HCl pH 8.0, 250 mM NaCl, 1% BSA; residual activity in triplicate at at least six inhibitor concentrations; Ki from a linear fit of 1/v against inhibitor concentration. As to conditions: both partners purified.

Chain of activated coagulation factor XI (FXIa) (Activated two-chain form, cleaved after residue 387 (precursor numbering). Heavy and light chains are disulfide-linked, and the whole is a disulfide-linked homodimer; N-glycosylated. The commercial fu) (chain, as listed by the source, chain 1 of 2): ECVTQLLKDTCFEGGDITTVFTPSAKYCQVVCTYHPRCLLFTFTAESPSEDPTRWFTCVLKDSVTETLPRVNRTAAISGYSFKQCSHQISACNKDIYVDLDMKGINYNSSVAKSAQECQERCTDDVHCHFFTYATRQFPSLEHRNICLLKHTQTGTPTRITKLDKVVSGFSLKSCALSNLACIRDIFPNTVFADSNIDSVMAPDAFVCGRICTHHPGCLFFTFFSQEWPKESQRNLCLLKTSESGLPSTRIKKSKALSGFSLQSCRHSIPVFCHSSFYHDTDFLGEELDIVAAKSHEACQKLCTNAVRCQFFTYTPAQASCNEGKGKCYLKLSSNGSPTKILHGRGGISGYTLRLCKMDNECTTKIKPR
Chain of activated coagulation factor XI (FXIa) (Activated two-chain form, cleaved after residue 387 (precursor numbering). Heavy and light chains are disulfide-linked, and the whole is a disulfide-linked homodimer; N-glycosylated. The commercial fu) (chain, as listed by the source, chain 2 of 2): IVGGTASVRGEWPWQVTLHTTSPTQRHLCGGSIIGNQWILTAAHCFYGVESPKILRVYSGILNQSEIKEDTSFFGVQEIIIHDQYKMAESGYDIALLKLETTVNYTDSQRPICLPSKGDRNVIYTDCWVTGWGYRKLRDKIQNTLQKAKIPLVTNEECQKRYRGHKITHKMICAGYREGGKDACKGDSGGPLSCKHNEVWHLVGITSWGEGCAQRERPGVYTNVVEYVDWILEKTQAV

B1: corn Hageman factor inhibitor (CHFI), control protein from Zea mays seeds (natural protein, UniProt P01088 29-138, looked up)
chain: SAGTSCVPGWAIPHNPLPSCRWYVTSRTCGIGPRLPWPELKRRCCRELADIPAYCRCTALSILMDGAIPPGPDAQLEGRLEDLPGCPREVQRGFAATLVTEAECNLATIS
notes: the mature protein has 127 amino acids, scissile bond Arg34-Leu35; numbers count on: the mature protein (PDB 1BEA); also called CHFI-ER; wild-type CHFI; source: bought: Enzyme Research Laboratories (from Z. mays seeds)
One may read the Ki as a measure of affinity in units of concentration, obtained from inhibition or displacement. B1 returned an inhibitory constant (Ki) of 5.4 ± 0.2 µM.

B2: CHFI-1245, full-size CHFI with Cys29 substituted by Asp (natural protein, Zea mays, UniProt P01088 29-138, looked up)
chain: B1 chain with C29D
notes: numbers count on: the mature protein (PDB 1BEA); also called C29D mutant; source: E. coli Rosetta-Gami 2 DE3, purified (Ni2+-agarose); not shown: His6, N-terminal, kept; C-terminal tag of 1.5 kDa (His tag inferred from pET-28a), C-terminal, kept
With B2, the Ki was determined as 490 ± 110 µM.
